Measurements taken from paper doi:10.1101/2021.06.01.446590.

How the values were obtained:
[1] = molecular target: human parkin, full-length (human) (UniProt O60260); test: ITC
parkin/pUb = parkin/pUb (UniProt O60260); test: ITC
parkin/pUb, sequence (O60260 whole entry, chain 1 of 2): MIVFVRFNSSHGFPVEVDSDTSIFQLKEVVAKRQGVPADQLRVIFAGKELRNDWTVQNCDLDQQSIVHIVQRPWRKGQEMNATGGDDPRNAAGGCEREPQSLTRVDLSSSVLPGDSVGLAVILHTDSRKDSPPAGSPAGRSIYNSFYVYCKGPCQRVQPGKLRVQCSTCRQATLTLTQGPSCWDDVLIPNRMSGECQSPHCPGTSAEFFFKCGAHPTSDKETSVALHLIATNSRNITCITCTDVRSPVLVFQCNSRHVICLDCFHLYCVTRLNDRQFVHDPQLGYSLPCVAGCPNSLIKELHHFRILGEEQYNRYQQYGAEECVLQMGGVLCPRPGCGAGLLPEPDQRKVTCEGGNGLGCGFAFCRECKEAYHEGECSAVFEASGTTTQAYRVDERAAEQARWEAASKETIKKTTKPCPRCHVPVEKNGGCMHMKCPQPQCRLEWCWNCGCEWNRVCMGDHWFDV
parkin/pUb, sequence (P0CG63 1-76, chain 2 of 2, further chain): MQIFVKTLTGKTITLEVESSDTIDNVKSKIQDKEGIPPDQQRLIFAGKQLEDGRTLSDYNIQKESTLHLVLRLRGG

human parkin, full-length (human), sequence (O60260 whole entry): as the sequence (O60260 whole entry, chain 1 of 2) above
UbcH7~Ub, sequence (P68036 whole entry): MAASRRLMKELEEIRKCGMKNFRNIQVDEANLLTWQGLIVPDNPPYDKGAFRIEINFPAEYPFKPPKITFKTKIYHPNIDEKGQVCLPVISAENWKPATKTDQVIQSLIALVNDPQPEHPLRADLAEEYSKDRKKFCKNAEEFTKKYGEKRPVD
UbcH7~Ub, sequence (P0CG63 1-76): as the sequence (P0CG63 1-76, chain 2 of 2, further chain) above

Row | Kd [1] | Kd (parkin/pUb) | Substance
1 | 428 nM | – | CISD1-pUb (CISD1-Ub phosphorylated at S65 of Ub by PINK1) (from UniProt Q9NZ45 32-108; P0CG63 1-76)
2 | – | 40000 nM | UbcH7~Ub (from UniProt P68036 1-154; P0CG63 1-76) (complex)
3 | 894 nM | – | mG2^T-pUb (mG2^T-Ub phosphorylated at S65 of Ub by PINK1) (from UniProt Q8IXI2 402-582; P0CG63 1-76)
